Test system: Escherichia coli TOP10
Test: shrunken log2 fold change of peptide-encoding DNA abundance (4.5 h post-induction vs induction); higher = less antimicrobial activity (less host growth inhibition)
Details: time post-induction: 4.5 h; library: site-saturation at positions 5, 18, 19, 20
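Note: peptides expressed intracellularly from a pBAD plasmid library in pooled LB shake-flask culture, induced with 0.3% L-arabinose, DNA abundance read by NGS, three biological replicates, DESeq2 with apeglm shrinkage.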

## RRIRIRPPRLPRPRPRPWPCPRP
  shrunken log2 fold change: -0.0182

## RRIRTRPPRLPRPRPRPVRSPRP
  shrunken log2 fold change: 0.641

## RRIRCRPPRLPRPRPRPMDLPRP
  shrunken log2 fold change: -0.0384

## RRIRSRPPRLPRPRPRPIPCPRP
  shrunken log2 fold change: -0.297

## RRIRYRPPRLPRPRPRPGSGPRP
  shrunken log2 fold change: -0.0839

## RRIRIRPPRLPRPRPRPFGTPRP
  shrunken log2 fold change: -0.109

## RRIRLRPPRLPRPRPRPVGQPRP
  shrunken log2 fold change: 0.0826

## RRIRPRPPRLPRPRPRPFAMPRP
  shrunken log2 fold change: 0.0938

## RRIRHRPPRLPRPRPRPIDNPRP
  shrunken log2 fold change: -0.359

## RRIRVRPPRLPRPRPRPCRIPRP
  shrunken log2 fold change: -0.385

## RRIRRRPPRLPRPRPRPILPPRP
  shrunken log2 fold change: 0.177

## RRIRLRPPRLPRPRPRPKTSPRP
  shrunken log2 fold change: 0.0111

## RRIRMRPPRLPRPRPRPTNMPRP
  shrunken log2 fold change: -0.0158

## RRIRNRPPRLPRPRPRPYRWPRP
  shrunken log2 fold change: -0.147

## RRIRQRPPRLPRPRPRPKWQPRP
  shrunken log2 fold change: 0.0435

## RRIRTRPPRLPRPRPRPATSPRP
  shrunken log2 fold change: -0.12

## RRIRLRPPRLPRPRPRPSYFPRP
  shrunken log2 fold change: -0.452

## RRIRGRPPRLPRPRPRPIGAPRP
  shrunken log2 fold change: 0.251

## RRIRLRPPRLPRPRPRPPKNPRP
  shrunken log2 fold change: 0.43

## RRIRIRPPRLPRPRPRPAWPPRP
  shrunken log2 fold change: 0.339

## RRIRFRPPRLPRPRPRPSDHPRP
  shrunken log2 fold change: -0.221

## RRIRMRPPRLPRPRPRPTAMPRP
  shrunken log2 fold change: 1.14

## RRIRQRPPRLPRPRPRPYHVPRP
  shrunken log2 fold change: -0.00172

## RRIRARPPRLPRPRPRPINFPRP
  shrunken log2 fold change: 0.0601

## RRIRDRPPRLPRPRPRPGDFPRP
  shrunken log2 fold change: -0.017

## RRIRVRPPRLPRPRPRPCKYPRP
  shrunken log2 fold change: -0.725

## RRIRTRPPRLPRPRPRPWWEPRP
  shrunken log2 fold change: 0.00671

## RRIRTRPPRLPRPRPRPHMHPRP
  shrunken log2 fold change: -0.543

## RRIRFRPPRLPRPRPRPRGEPRP
  shrunken log2 fold change: 0.125

## RRIRMRPPRLPRPRPRPMDSPRP
  shrunken log2 fold change: 0.0342

## RRIRYRPPRLPRPRPRPQIVPRP
  shrunken log2 fold change: -0.342

## RRIRTRPPRLPRPRPRPMRPPRP
  shrunken log2 fold change: 0.93

## RRIRHRPPRLPRPRPRPMHAPRP
  shrunken log2 fold change: -9.3e-05

## RRIRDRPPRLPRPRPRPILQPRP
  shrunken log2 fold change: -0.0838

## RRIRDRPPRLPRPRPRPARVPRP
  shrunken log2 fold change: 0.948

## RRIRFRPPRLPRPRPRPRFLPRP
  shrunken log2 fold change: -0.421

## RRIRYRPPRLPRPRPRPMCWPRP
  shrunken log2 fold change: -0.213

## RRIRERPPRLPRPRPRPHSAPRP
  shrunken log2 fold change: -0.179

## RRIRQRPPRLPRPRPRPINDPRP
  shrunken log2 fold change: -0.293

## RRIRPRPPRLPRPRPRPPFAPRP
  shrunken log2 fold change: 0.647

## RRIRNRPPRLPRPRPRPNQPPRP
  shrunken log2 fold change: -0.055

## RRIRNRPPRLPRPRPRPVHLPRP
  shrunken log2 fold change: -0.138

## RRIRIRPPRLPRPRPRPTIEPRP
  shrunken log2 fold change: -0.44

## RRIRRRPPRLPRPRPRPAFVPRP
  shrunken log2 fold change: 0.36

## RRIRTRPPRLPRPRPRPWFQPRP
  shrunken log2 fold change: -0.195

## RRIRDRPPRLPRPRPRPAGPPRP
  shrunken log2 fold change: 0.271

## RRIRHRPPRLPRPRPRPQHSPRP
  shrunken log2 fold change: -0.376

## RRIRERPPRLPRPRPRPQDKPRP
  shrunken log2 fold change: -0.0918

## RRIRERPPRLPRPRPRPPHCPRP
  shrunken log2 fold change: 0.118

## RRIRVRPPRLPRPRPRPRYAPRP
  shrunken log2 fold change: -0.000525

## RRIRWRPPRLPRPRPRPFTHPRP
  shrunken log2 fold change: -0.297

## RRIRYRPPRLPRPRPRPEHNPRP
  shrunken log2 fold change: -0.0212

## RRIRQRPPRLPRPRPRPEHYPRP
  shrunken log2 fold change: -0.153

## RRIRSRPPRLPRPRPRPYTEPRP
  shrunken log2 fold change: -0.186

## RRIRRRPPRLPRPRPRPAFWPRP
  shrunken log2 fold change: 0.547

## RRIRLRPPRLPRPRPRPRLGPRP
  shrunken log2 fold change: 0.518

## RRIRSRPPRLPRPRPRPHVAPRP
  shrunken log2 fold change: -0.136

## RRIRKRPPRLPRPRPRPRDSPRP
  shrunken log2 fold change: 0.262

## RRIRERPPRLPRPRPRPCVVPRP
  shrunken log2 fold change: 0.0441

## RRIRQRPPRLPRPRPRPAIVPRP
  shrunken log2 fold change: -0.0943

## RRIRTRPPRLPRPRPRPCITPRP
  shrunken log2 fold change: -0.96

## RRIRQRPPRLPRPRPRPQVSPRP
  shrunken log2 fold change: 0.301

## RRIRQRPPRLPRPRPRPKATPRP
  shrunken log2 fold change: 0.18

## RRIRERPPRLPRPRPRPHFIPRP
  shrunken log2 fold change: -0.573

## RRIRIRPPRLPRPRPRPDRYPRP
  shrunken log2 fold change: -0.032

## RRIRWRPPRLPRPRPRPSFQPRP
  shrunken log2 fold change: -0.284

## RRIRWRPPRLPRPRPRPNGFPRP
  shrunken log2 fold change: 0.128

## RRIRYRPPRLPRPRPRPPLRPRP
  shrunken log2 fold change: -0.151

## RRIRLRPPRLPRPRPRPQQPPRP
  shrunken log2 fold change: -0.208

## RRIRDRPPRLPRPRPRPSPFPRP
  shrunken log2 fold change: -0.0929

## RRIRRRPPRLPRPRPRPRWHPRP
  shrunken log2 fold change: 0.353

## RRIRQRPPRLPRPRPRPRVNPRP
  shrunken log2 fold change: -0.0952

## RRIRWRPPRLPRPRPRPDEKPRP
  shrunken log2 fold change: 0.0625

## RRIRCRPPRLPRPRPRPFVRPRP
  shrunken log2 fold change: -0.141

## RRIRIRPPRLPRPRPRPGKMPRP
  shrunken log2 fold change: -0.329

## RRIRHRPPRLPRPRPRPVKEPRP
  shrunken log2 fold change: -0.00992

## RRIRIRPPRLPRPRPRPAAWPRP
  shrunken log2 fold change: 0.112

## RRIRTRPPRLPRPRPRPSETPRP
  shrunken log2 fold change: 0.11

## RRIRIRPPRLPRPRPRPATGPRP
  shrunken log2 fold change: -0.119

## RRIRMRPPRLPRPRPRPGKKPRP
  shrunken log2 fold change: 0.532

## RRIRFRPPRLPRPRPRPLLYPRP
  shrunken log2 fold change: -1.01

## RRIRDRPPRLPRPRPRPLFSPRP
  shrunken log2 fold change: 0.0525

## RRIRGRPPRLPRPRPRPMKEPRP
  shrunken log2 fold change: 0.31

## RRIRERPPRLPRPRPRPIYWPRP
  shrunken log2 fold change: -0.0719

## RRIRDRPPRLPRPRPRPRCSPRP
  shrunken log2 fold change: -0.0967

## RRIRWRPPRLPRPRPRPIFLPRP
  shrunken log2 fold change: -0.509

## RRIRMRPPRLPRPRPRPEVMPRP
  shrunken log2 fold change: 2.84

## RRIRSRPPRLPRPRPRPCWEPRP
  shrunken log2 fold change: 0.311

## RRIRYRPPRLPRPRPRPTPHPRP
  shrunken log2 fold change: -0.181

## RRIRYRPPRLPRPRPRPGQEPRP
  shrunken log2 fold change: -0.0317

## RRIRSRPPRLPRPRPRPNDRPRP
  shrunken log2 fold change: 0.0698

## RRIRWRPPRLPRPRPRPEDVPRP
  shrunken log2 fold change: 0.0895

## RRIRFRPPRLPRPRPRPRWMPRP
  shrunken log2 fold change: -0.149

## RRIRGRPPRLPRPRPRPNKKPRP
  shrunken log2 fold change: 0.0152

## RRIRDRPPRLPRPRPRPAGKPRP
  shrunken log2 fold change: 0.0578

## RRIRRRPPRLPRPRPRPEQSPRP
  shrunken log2 fold change: 0.353

## RRIRLRPPRLPRPRPRPCDIPRP
  shrunken log2 fold change: -0.0237

## RRIRLRPPRLPRPRPRPWTMPRP
  shrunken log2 fold change: -0.202

## RRIRVRPPRLPRPRPRPTYFPRP
  shrunken log2 fold change: -0.0832

## RRIRIRPPRLPRPRPRPSQCPRP
  shrunken log2 fold change: -0.0584

## RRIRPRPPRLPRPRPRPSMWPRP
  shrunken log2 fold change: -0.252

## RRIRTRPPRLPRPRPRPYYCPRP
  shrunken log2 fold change: -0.249

## RRIRQRPPRLPRPRPRPLSIPRP
  shrunken log2 fold change: -0.325

## RRIRCRPPRLPRPRPRPISCPRP
  shrunken log2 fold change: -0.0979

## RRIRRRPPRLPRPRPRPGCPPRP
  shrunken log2 fold change: 0.414

## RRIRNRPPRLPRPRPRPRVPPRP
  shrunken log2 fold change: -0.134

## RRIRFRPPRLPRPRPRPVLWPRP
  shrunken log2 fold change: 0.577

## RRIRWRPPRLPRPRPRPEANPRP
  shrunken log2 fold change: 1.14

## RRIRPRPPRLPRPRPRPAIMPRP
  shrunken log2 fold change: -0.00756

## RRIRGRPPRLPRPRPRPSLGPRP
  shrunken log2 fold change: 0.488

## RRIRLRPPRLPRPRPRPWLGPRP
  shrunken log2 fold change: 0.181

## RRIRTRPPRLPRPRPRPDQYPRP
  shrunken log2 fold change: -0.0122

## RRIRARPPRLPRPRPRPRVMPRP
  shrunken log2 fold change: 0.197

## RRIRVRPPRLPRPRPRPHLCPRP
  shrunken log2 fold change: -0.137

## RRIRLRPPRLPRPRPRPYRCPRP
  shrunken log2 fold change: -0.268

## RRIRERPPRLPRPRPRPAPSPRP
  shrunken log2 fold change: 0.116

## RRIRRRPPRLPRPRPRPVCCPRP
  shrunken log2 fold change: 0.158

## RRIRCRPPRLPRPRPRPKMMPRP
  shrunken log2 fold change: -0.113

## RRIRHRPPRLPRPRPRPDFKPRP
  shrunken log2 fold change: -0.127

## RRIRLRPPRLPRPRPRPSGFPRP
  shrunken log2 fold change: -0.259

## RRIRMRPPRLPRPRPRPIKNPRP
  shrunken log2 fold change: 0.387

## RRIRWRPPRLPRPRPRPSTIPRP
  shrunken log2 fold change: -0.374

## RRIRNRPPRLPRPRPRPQTNPRP
  shrunken log2 fold change: -0.276

## RRIRERPPRLPRPRPRPHDFPRP
  shrunken log2 fold change: -0.0616

## RRIRGRPPRLPRPRPRPNRTPRP
  shrunken log2 fold change: -0.0769
